This experiment addresses T1, Staphylococcal Enterotoxin B (SEB) (UniProt P01552 28-266).
T1 sequence: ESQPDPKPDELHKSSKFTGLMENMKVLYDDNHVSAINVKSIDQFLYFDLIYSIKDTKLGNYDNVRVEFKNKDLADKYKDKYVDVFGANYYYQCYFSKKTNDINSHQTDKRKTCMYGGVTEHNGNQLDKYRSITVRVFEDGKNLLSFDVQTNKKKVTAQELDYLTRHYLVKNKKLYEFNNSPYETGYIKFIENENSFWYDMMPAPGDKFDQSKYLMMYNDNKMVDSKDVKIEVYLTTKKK
Put plainly: SPR (ProteON XPR36), antigen-coated chip.

B1: sdAb A3 (VHH)
VHH: EVQLVESGGGLVQAGDSLRLSCTASGRTFSRAVMGWFRQAPGKEREFVAAISAAPGTAYYAFYADSVRGRFSISADSAKNTVYLQMNSLKPEDTAVYYCAADLKMQVAAYMNQRSVDYWGQGTQVTVSS
As to B1, the binding result is given as “binds”.
